Laboratory results taken from patent publication US5670637.

Experiments:
[1] = target: T1, T4 DNA polymerase (gp43) (Bacteriophage T4) (UniProt P04415); assay: filter; details: random loop population, 50-fold lower affinity
T1 sequence: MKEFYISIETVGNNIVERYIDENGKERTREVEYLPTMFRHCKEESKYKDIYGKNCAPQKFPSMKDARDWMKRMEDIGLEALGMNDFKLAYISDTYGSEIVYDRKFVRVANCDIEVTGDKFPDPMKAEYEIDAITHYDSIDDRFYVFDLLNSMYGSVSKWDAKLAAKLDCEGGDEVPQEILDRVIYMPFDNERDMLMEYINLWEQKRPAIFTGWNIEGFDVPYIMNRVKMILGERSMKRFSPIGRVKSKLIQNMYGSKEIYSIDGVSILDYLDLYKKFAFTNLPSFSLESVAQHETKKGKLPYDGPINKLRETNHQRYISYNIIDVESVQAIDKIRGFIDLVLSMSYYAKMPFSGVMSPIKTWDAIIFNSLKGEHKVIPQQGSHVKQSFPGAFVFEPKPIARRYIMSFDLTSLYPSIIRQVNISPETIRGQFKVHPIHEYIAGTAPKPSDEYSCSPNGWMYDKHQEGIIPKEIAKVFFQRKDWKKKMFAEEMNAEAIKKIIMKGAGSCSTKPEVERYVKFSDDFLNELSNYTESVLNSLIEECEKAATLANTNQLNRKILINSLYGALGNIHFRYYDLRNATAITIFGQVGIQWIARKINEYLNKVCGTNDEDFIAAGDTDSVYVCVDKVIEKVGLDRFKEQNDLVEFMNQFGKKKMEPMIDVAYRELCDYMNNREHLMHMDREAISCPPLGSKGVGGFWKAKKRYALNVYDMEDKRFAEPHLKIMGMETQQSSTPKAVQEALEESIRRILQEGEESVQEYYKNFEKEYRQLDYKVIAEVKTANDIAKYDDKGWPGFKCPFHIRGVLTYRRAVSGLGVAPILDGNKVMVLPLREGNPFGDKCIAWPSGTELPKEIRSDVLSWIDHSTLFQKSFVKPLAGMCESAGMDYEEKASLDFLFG

[2] = target: HIV-1 reverse transcriptase p66/p51 heterodimer (Human immunodeficiency virus 1) (UniProt P04585+P04585); assay: filter; details: half-maximal binding; 200 mM KOAc, 50 mM Tris-HCl pH 7.7, 10 mM DTT
[3] = target: human tissue plasminogen activator (htPA) (Homo sapiens) (UniProt P00750); assay: filter; details: 150 mM NaAc, 50 mM Tris-acetate pH 7.5
[4] = target: T1, T4 DNA polymerase (gp43) (Bacteriophage T4); assay: FP; details: filter binding; 200 mM KOAc, 50 mM Tris-HCl pH 7.7, 37 C

Chain of human tissue plasminogen activator (htPA) (Homo sapiens) (P00750 36-562): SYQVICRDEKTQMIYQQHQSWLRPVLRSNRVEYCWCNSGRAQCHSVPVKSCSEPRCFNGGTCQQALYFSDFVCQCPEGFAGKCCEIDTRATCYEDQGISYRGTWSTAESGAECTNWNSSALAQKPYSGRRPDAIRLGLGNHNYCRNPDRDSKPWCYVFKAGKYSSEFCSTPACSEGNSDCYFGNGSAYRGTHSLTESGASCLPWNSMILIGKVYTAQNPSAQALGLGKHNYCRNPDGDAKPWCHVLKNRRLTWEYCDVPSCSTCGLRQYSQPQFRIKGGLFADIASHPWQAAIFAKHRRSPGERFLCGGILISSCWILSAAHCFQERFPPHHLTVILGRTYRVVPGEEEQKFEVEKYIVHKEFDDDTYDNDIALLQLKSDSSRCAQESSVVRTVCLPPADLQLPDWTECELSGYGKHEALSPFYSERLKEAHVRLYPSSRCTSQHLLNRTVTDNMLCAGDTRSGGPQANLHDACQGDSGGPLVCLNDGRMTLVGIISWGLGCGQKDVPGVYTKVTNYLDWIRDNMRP

Which Kd [1] does the source give for “AUAUUCCUUAGUUUAUAGCCCNNNNNNNNAGGCUCUUGAUUG [gene 43 operator RNA random 8N loop pool]” here?
Its Kd is 250 nM.

Which K half [2] does the source give for “GGGAGCAUCAGACUUUUAAUCUGACAAUCAAGNNNNNNNNNNNNNNNNNNNNNNNNNNNNNNNNAUCUAUGAAAGAAUUUUAUAUCUCUAUUGAAAC” here?
Its K half is 700 nM.

How did the Kd [3] turn out when “GGGAGCUCAGAAUAAACGCUCAANNNNNNNNNNNNNNNNNNNNNNNNNNNNNNUUCGACAUGAGGCCCGGAUCCGGC [30N candidate pool]” was run?
Its Kd is 70 nM.

“AUAUUCCUUAGUUUAUAGCCCNNNNNNNNAGGCUCUUGAUUG [gp43 RNA wild-type loop AAUAACUC]” was tested. Which Kd [4] did it give?
Its Kd is 5 nM.
